Reference: publication PMC4856591 (Structure (London, England : 1993), 2016)

Target: the molecule itself
Experiment: SAXS

B1: Human PKG Iβ LZ:CNB-A/B (residues 1-369) (domain or fragment, UniProt Q13976-2 1-369, looked up)
chain: MGTLRDLQYALQEKIEELRQRDALIDELELELDQKDELIQKLQNELDKYRSVIRPATQQAQKQSASTLQGEPRTKRQAISAEPTAFDIQDLSHVTLPFYPKSPQSKDLIKEAILDNDFMKNLELSQIQEIVDCMYPVEYGKDSCIIKEGDVGSLVYVMEDGKVEVTKEGVKLCTMGPGKVFGELAILYNCTRTATVKTLVNVKLWAIDRQCFQTIMMRTGLIKHTEYMEFLKSVPTFQSLPEEILSKLADVLEETHYENGEYIIRQGARGDTFFIISKGTVNVTREDSPSEDPVFLRTLGKGDWFGEKALQGEDVRTANVIAAEAVTCLVIDRDSFKHLIGGLDDVSNKAYEDAEAKAKYEAEAAFFAN
binding result: binds
